According to the supplement of paper PMC10598134:
± gives the standard deviation.

Assay: collision cross section of modified peptide (TIMS, N2, iRT-aligned); higher = larger / more extended gas-phase ion
In short: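 Synthetic peptide pools (~100 fmol/µL in 2% acetonitrile/0.1% formic acid, iRT standard spiked 1:40) were separated on a 120-min nanoflow C18 gradient at 60 °C. They were analysed on a timsTOF Pro/HT (dda-PASEF, nitrogen, ~2.4 mbar) and identified with MaxQuant. 1/K0 was calibrated with three reference ions and aligned run-wise to the median iRT peptide deviation. Collision cross section came from the Mason-Schamp equation, averaging 1–3 technical replicates of the most abundant feature per charge state.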

[1] = charge state: 2, modification: Phospho (Y)
[2] = charge state: 3, modification: Phospho (Y)
[3] = charge state: 2, modification: Acetyl (K)
[4] = charge state: 3, modification: Dimethyl (K)
[5] = charge state: 2, modification: Nitro (Y)

VVPGYGHAVLR [_VVPGY(Phospho (Y))GHAVLR_]
collision cross section [1]: 386.55 ± 0.062 Å² | collision cross section [2]: 451.71 Å²

VYIASSSGSTAIKK [_VYIASSSGSTAIK(Acetyl (K))K_]
collision cross section [3]: 414.5 ± 2.5 Å² | collision cross section (charge state: 3, modification: Acetyl (K)): 503.2 ± 1.2 Å²

VYIASSSGSTAIKK [_VYIASSSGSTAIK(Biotin)K_]
collision cross section (charge state: 2, modification: Biotin): 429.83 Å²

VYIASSSGSTAIKK [_VYIASSSGSTAIK(Butyryl)K_]
collision cross section (charge state: 2, modification: Butyryl): 422.89 ± 0.77 Å² | collision cross section (charge state: 3, modification: Butyryl): 508.32 ± 2.9 Å²

VYIASSSGSTAIKK [_VYIASSSGSTAIK(Crotonyl)K_]
collision cross section (charge state: 2, modification: Crotonyl): 419.06 ± 0.81 Å² | collision cross section (charge state: 3, modification: Crotonyl): 505.65 ± 0.46 Å²

VYIASSSGSTAIKK [_VYIASSSGSTAIK(Dimethyl (K))K_]
collision cross section (charge state: 2, modification: Dimethyl (K)): 434.74 ± 1.3 Å² | collision cross section [4]: 497.25 ± 0.75 Å²

VYIASSSGSTAIKK [_VYIASSSGSTAIK(Formyl)K_]
collision cross section (charge state: 2, modification: Formyl): 408.95 ± 1.8 Å² | collision cross section (charge state: 3, modification: Formyl): 497.96 ± 1.5 Å²

VYIASSSGSTAIKK [_VYIASSSGSTAIK(Gluratylation)K_]
collision cross section (charge state: 2, modification: Glutarylation): 420.03 ± 1.5 Å² | collision cross section (charge state: 3, modification: Glutarylation): 512.2 ± 1 Å²

VYIASSSGSTAIKK [_VYIASSSGSTAIK(GlyGly (K))K_]
collision cross section (charge state: 2, modification: GlyGly (K)): 437.45 ± 1.4 Å² | collision cross section (charge state: 3, modification: GlyGly (K)): 498.73 ± 3.9 Å²

VYIASSSGSTAIKK [_VYIASSSGSTAIK(Malonyl)K_]
collision cross section (charge state: 2, modification: Malonyl): 409.24 ± 0.039 Å²

VYIASSSGSTAIKK [_VYIASSSGSTAIK(Methyl (K))K_]
collision cross section (charge state: 2, modification: Methyl (K)): 428.78 ± 1.9 Å² | collision cross section (charge state: 3, modification: Methyl (K)): 495.87 ± 3.1 Å²

VYIASSSGSTAIKK [_VYIASSSGSTAIK(Propionyl)K_]
collision cross section (charge state: 2, modification: Propionyl): 415.66 ± 0.38 Å²

VYIASSSGSTAIKK [_VYIASSSGSTAIK(Succinyl)K_]
collision cross section (charge state: 2, modification: Succinyl): 413.08 ± 1.1 Å² | collision cross section (charge state: 3, modification: Succinyl): 508.16 ± 1.6 Å²

VYIASSSGSTAIKK [_VYIASSSGSTAIK(Trimethyl (K))K_]
collision cross section (charge state: 2, modification: Trimethyl (K)): 434.92 ± 0.58 Å² | collision cross section (charge state: 3, modification: Trimethyl (K)): 501.36 ± 1.6 Å²

VYIASSSGSTAIKK [_VYIASSSGSTAIK(hydroxyisobutyryl)K_]
collision cross section (charge state: 2, modification: hydroxyisobutyryl): 417.04 ± 1.1 Å² | collision cross section (charge state: 3, modification: hydroxyisobutyryl): 511.39 ± 2 Å²

VYPSSLSK [_VY(Nitro (Y))PSSLSK_]
collision cross section [5]: 327.32 ± 0.71 Å²

VYPSSLSK [_VY(Phospho (Y))PSSLSK_]
collision cross section [1]: 344.53 ± 0.066 Å²

VYSGHQGR [_VY(Nitro (Y))SGHQGR_]
collision cross section [5]: 327.94 ± 0.59 Å² | collision cross section (charge state: 3, modification: Nitro (Y)): 418.62 ± 1.2 Å²

VYSGHQGR [_VY(Phospho (Y))SGHQGR_]
collision cross section [1]: 330.73 ± 0.068 Å² | collision cross section [2]: 415.14 ± 2.5 Å²

VYSLFLDESR [_VY(Nitro (Y))SLFLDESR_]
collision cross section [5]: 377.85 ± 0.17 Å²

VYSLFLDESR [_VY(Phospho (Y))SLFLDESR_]
collision cross section [1]: 376.54 ± 1.2 Å²

VYVGNLGTGAGK [_VY(Nitro (Y))VGNLGTGAGK_]
collision cross section [5]: 354.85 ± 1.5 Å²

VYVGNLGTGAGK [_VY(Phospho (Y))VGNLGTGAGK_]
collision cross section [1]: 364.53 ± 0.064 Å²

YADLTEDQLPSCESLK [_Y(Nitro (Y))ADLTEDQLPSCESLK_]
collision cross section [5]: 442.66 ± 0.55 Å²

YADLTEDQLPSCESLK [_Y(Phospho (Y))ADLTEDQLPSCESLK_]
collision cross section [1]: 458.87 Å²

YEATSVQQK [_Y(Nitro (Y))EATSVQQK_]
collision cross section [5]: 342.71 ± 0.55 Å²

YEATSVQQK [_Y(Phospho (Y))EATSVQQK_]
collision cross section [1]: 348.75 ± 0.066 Å²

YEEIVKEVSTYIK [_YEEIVK(Acetyl (K))EVSTYIK_]
collision cross section [3]: 431.89 ± 3.1 Å²

YEEIVKEVSTYIK [_YEEIVK(Dimethyl (K))EVSTYIK_]
collision cross section [4]: 492.52 Å²
